The text below walks through data of paper doi:10.1101/2020.10.15.341636 (bioRxiv, 2020).

The target in experiment [1] is T1, SARS-CoV-2 wild type RBD (BEI NR52309) (Severe acute respiratory syndrome …, UniProt P0DTC2). Nature of the experiment: BLI. On the technique in general: BLI is a label-free optical method that tracks binding on a fibre tip over time.
Experiment [2] addresses T1, SARS-CoV-2 wild type RBD (BEI NR52309). As to the kind of experiment: crystal structure.

B1: mAb 298 IgG (antibody, V domains shown)
VH: QVQLVQSGAEVKKPGASVKVSCKASGGTFSTYGISWVRQAPGQGLEWMGWISPNSGGTDLAQKFQGRVTMTRDTSTSTVYMELSSLRSEDTAVYYCASDPRDDIAGGYWGQGTLVTVSS
VL: not shown
Turning to B1, the binding result in experiment [1] was “binds”.

B2: Fab 298 (Fab, V domains shown)
VH: QVQLVQSGAEVKKPGASVKVSCKASGGTFSTYGISWVRQAPGQGLEWMGWISPNSGGTDLAQKFQGRVTMTRDTSTSTVYMELSSLRSEDTAVYYCASDPRDDIAGGYWGQGTLVTVSS
VL: not shown
Turning to B2, in experiment [2], the binding result is on record as “binds”.

B3: mAb 52 IgG (antibody, V domains shown)
VH: QVQLVQSGAEVKKPGSSVKVSCKASGYTFTSYGISWVRQAPGQGLEWMGGIIPMFGTTNYAQKFQGRVTITADKSTSTAYMELSSLRSEDTAVYYCARDRGDTIDYWGQGTLVTVSS
VL: DIQMTQSPSSLSASVGDRVTITCRASQGISNNLNWYQQKPGKAPKLLIYAASSLESGVPSRFSGSGSGTDFTLTISSLQPEDFATYYCQQGNGFPLTFGPGTKVDIK
For B3, the binding result in experiment [1] is recorded as “binds”.

B4: Fab 52 (Fab, V domains shown)
VH: QVQLVQSGAEVKKPGSSVKVSCKASGYTFTSYGISWVRQAPGQGLEWMGGIIPMFGTTNYAQKFQGRVTITADKSTSTAYMELSSLRSEDTAVYYCARDRGDTIDYWGQGTLVTVSS
VL: DIQMTQSPSSLSASVGDRVTITCRASQGISNNLNWYQQKPGKAPKLLIYAASSLESGVPSRFSGSGSGTDFTLTISSLQPEDFATYYCQQGNGFPLTFGPGTKVDIK
Turning to B4, the binding result in experiment [2] is on record as “binds”.

B5: mAb 324 IgG (antibody, V domains shown)
VH: QVQLVQSGAEVKKPGASVKVSCKASGGTFNNYGISWVRQAPGQGLEWMGWMNPNSGNTGYAQKFQGRVTMTRDTSTSTVYMELSSLRSEDTAVYYCARVGDYGDYIVSPFDLWGRGTLVTVSS
VL: DIQMTQSPSSLSASVGDRVTITCRASQSITTYLNWYQQKPGKAPKLLIYDASNLETGVPSRFSGSGSGTDFTLTISSLQPEDFATYYCQQSYSTPPTFGQGTKVEIK
Turning to B5, the binding result in experiment [1] is “binds”.

B6: mAb 236 IgG (antibody, V domains shown)
VH: QVQLVQSGAEVKKPGASVKVSCKASGGTFTSYGINWVRQAPGQGLEWMGWMNPNSGNTGYAQKFQGRVTMTRDTSTSTVYMELSSLRSEDTAVYYCASRGIQLLPRGMDVWGQGTTVTVSS
VL: not shown
For the molecule B6, the binding result in experiment [1] is recorded as “binds”.
